Data: the supplement of paper PMC12636428

Test system: Saccharomyces cerevisiae
Test: transcriptional activation domain activity (GFP:mCherry ratio, weighted mean of sorted bins, harmonized to initial dataset scale) (arbitrary fluorescence ratio units); higher = stronger transcriptional activation
Settings: beta-estradiol 1 µM; induction time 4 h
In short: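 Each value is an activation activity: the read-weighted mean of bin median fluorescence, averaged across barcodes, then mapped linearly to the initial dataset scale. The tiles, fused to an estradiol-inducible synthetic transcription factor, sat at the yeast URA3 locus in GFP-reporter diploids. Cells spent 4 hours at 30 °C in SC with 1 uM beta-estradiol before sorting into 8 GFP:mCherry bins, and tiles below 50 reads were removed.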

Sequence	transcriptional activation domain activity
VVAYGSGKEEGMKVEGEGEGGKVLRDIIDKLGHALTSTRFAGLPLPHVLAVVK	69700
MLVVELLPAIESFFGHIFCTDFMFCFLFFYIIYIFFFSRFSVIANYTVMSLYF	85300
FFFSFFFFLFLFLFHLRFFPLTFVPFFIPCLLLLSSSLLLCCVVWYLFMRLFS	46700
MKFCFIVWLSCMCIYFAKVIVVFLIALCLDNIFPFHIPNTKLLIPSTHFMITW	57500
NRTLSTKDLIVLRLCSSFFAYFIISLFYCLMNLAFQIVVDRKFGQAGFIVFWM	62100
TPEFHGQADVDTGILTLKKDEDIRDHPDAARFAEESKAARITKRGAREGLEHV	22000
MIWRYVWYTLVLGCLFCCRPNYSLLVPNTIDLHRLWLGFRFQILFVAWGVYLV	58900
EAQAEEEVAPAPKPRGRPRRAAAEAPAPEISKPTTRGRAKKVEAPAEDVIVVE	24100
FLRRVFQNHPEVMFKPGPFYMGDGIIGLGANWICICWTLFVCVLLSFPTILPV	66700
LQAMLLLAHMILAIPFFSLFCRLLLLHPTNPDSPVLWMSLHVFFTYLWSLALV	66000
SPENVSLAAVTGVYGLGLNPWPTFDYNMLGLDPLVTPFFTTFNFFLGTLFTLP	74100
FLVCLLTMEFILHYMYVVAIQGAKAWHGDTPLELSMIGFWNLIVVWLKLLLPW	18200
EKGGRDKDKDGRPANAKPKSKPHGKTPKPQQQRDGKKSATLKENAAPAAPAAA	24800
GEEGEMSLTKDDLVELLEQDDNGWCRRSAPPARNRPVPAKPAATTNTVRASPV	< 6570
GRGRGGRGAGARGRGGTGEEGEGAGGKQERGQGGRGKERGGEGGGERGQGGRG	28000
TPFLFYRPLPPQYFCKFLLYYGGLVWWVLYSGFFFYFILGRGYRKIFLSYFCL	53100
SYITYYQSRQFVMIPWYFYFIIITCVLTIIFVMAVCFLFYIHLLLPILVMLWS	35400
ASIPDPAADDDDAEFGGTGEKKPRKRAPKAASGESKNGKAKAVKTEGGASAAG	33300
MSTAAVNEVTETLAATAISNPTNGAAANEATAASADEGRRLYIGNLAYATTEG	36000
SPSSQTTSSTTVVLVFGSDEKRVKEVGDGLKSKLAVKGGGKGTRWSGKYTGVW	32000
SGWQRHIILHESLLNRYEHVIIVFVKSHLPSAGLLLKQFCVSGRILARMWRNG	47800
SIKVTRYLLNLAHCTNDQWFYYIVFFFAELVVYTIMIVAIGSILFQWRFFCLV	52100
MQGSGKLSGLIFLSCFFSLLFFFFSFLFFYFFLLSNQLLFFCPNLVLDVALFT	18000
SHDTFPLRPILVKLLCHAMLMKGVDPVSIIEKQPMTYGFVADILLPLVLDLPS	62200
MLLLKCSLSWIIRKGIYRAKSVMYLWVVANECCSLSMAEWLFLHQSVCSICQC	58100

Sequence	transcriptional activation domain activity
MIERCLMMGPSLGLYVFDLFLLEVGYLAFYAHFNLFSMFAYVFPFIPLVGIRC	41500
AAAPAPEPAPKKGRPGRKPAAKSEPEAVEEKTEDAPKKRGRRSTLIPEPVEET	< 6570
EAAAGSVKNEAGESSASSAARGGRGGRRGGGGPGSRGGKVGRGRGGRAGASQE	32500
PFLPSSLPPFLPSSLPPFLPSSLPPFLPSSLPPSLLFSFLFSFPLPSPPSLPL	64000
MIISAVYITYFFSLSYLFFPLYLFIVYPFFSFLFNLLAKDTFIVDTYIIVFFA	50600
EPKKAKIGAPKRKKKEVIEDAEAGAGAETEEGEAPPKKKRGGRKAKPAKEEPV	15600
VKAVVICLLICETLQITFFFCATYWLLIDHFGDFNALVVITWHESVQLLAGYL	45200
GRGKESLLVLSGCSLIQIPVPVWGYHIAFVVCQKYYGSHLGIVHLILPFAFTI	47800
AKAAEAVVAPEADAEKAEEAVVEKPKSTKGRKRKADEEDAEEVAAEANGAEAA	28200
MGLGFFSFFLSVFSFFLFPFFFFGCEFIYLFLVFWWRVDFSPMAERHSVEAGP	53000
TENIERVLERGERIDLLVDKTGRLNVGANEFRRRSRGLRRRMWWKNVKLMALL	65200
EQYKLVCEALHERATFLEIAPYLAHQLPIMLPLYKWWQLPYYWAGCKVYDLLA	43400
DDEDEEQEEEEEDVDPEVRRKEELRARMAKMSGGMGMAGMFGMMPMPGAGAPP	41500
RTYVQYWIQAFPKIARFFTIFFAAMSVTRYKAFMDSPVLALNNLAKRILRMSL	44500
MRRLPTAMVSCFGVYAVSHNLSLPFVSSLFPCFIQFCARIILFSLVGYSFWSL	74500
HVYGPTLVVHRYSLPLLFYYFVLFMFLESLPRLFRCISLFFQLAQLLMLLVPI	34100
MPLCSLHTYKGGWLWLWWLRWWWRNNNCEALNFSFFFFFFFFLFLFRGVDGVL	66000
KIRTNALLSSFLVSLTEGAANGTRFASPEGAVTSALVRIFLRLIWLWTATGRR	57200
KVSFLFGVWFFFSFEVLGFFDFFPSFLSFRRIFFIIFILYFIIYLYVVFFVSF	73700
MDGVGLGSHRGSGSSSSSSSSAADRAPRHSTRRKRGRESRGAVVVIAATNRPN	39200
SFRYHYGELRLSRLNKIHCITRFTWRDFVRGYMTTSTWYQDFFARNFAWLLAV	55900
MPNLGLRREWYKGDFSVKYTQLTLIYLVMCVWFPSCLGGYMLTLQYIMLLLIM	68600
MLFFFLYIFLCGCFPFWNMSIFFSVIPPFFSFLPLMLLFFFFFGMFGQRINIF	36300
GDGTPTLSWRHDLGGGEVRDLEVTVVKVHSGEVTLLSSATLKLVLVFHLSSTI	43400
MGFCFYVAGCMSISLILLFSFCLLLPPIFTGYQILWLLWIILPILSMSMLFTP	43400

Sequence	transcriptional activation domain activity
NSLRNLFDLVGCSSLCSSSQKRGFVGRLVVDFASCAWPPVIVILLIWISLFWW	39200
KIMSFIIGLGLICPLVLVRDKLTILLTLCYEGLLVGFWFIDHAQALRWYCLFI	68700
FLLAIRVSNMDLLMIGIMLTLFVRNVIVSTDYIRRGRVRYKALFYVLLCKYYR	49600
MIRWVFFRGYLGQEGFLSFLFFFVFFSGLSLWERIGYGFFILPSFYMDLLFLA	58300
MFFKMMTTQDIQFVNVCFKLHSTLPMLFIGGIFLIIHCTSSSAIKGRICTAAF	34100
EKRYGPMLDPKNPLHYMWQLVYNILSLKLHIMLLFRYASNMHRIMPERLRQTV	58300
EAERERLEREVEAENVRKAEEERKEKERLVKEARERAAREAAEREAAAAAAAA	52700
TAAPYHKLAYHPALSPKISLGFWPFQHILTFLDYKEYVLQWTLLVTVQIPWFN	64700
MVLFLFCLITFACSRTWVMAFLLIWVSSFFLFILFFFSFFSYYAFRVLPLCYS	46300
TFLLLPIFVCPHPNLLFGLGFSLILHACLRQIFLSSLVICVFLSLLVIYMLYV	50900
KTHPQASAEADGEEDAEPEGQAKSRQPSRRRQSRGRGRRGGPQESDTESIARS	19300
LPVYQLSVSPWKSKEAMDAWCMAKIESLLLDFKFLNAWVQLLVANNLQQIHIP	63900
TRVQDEWVSITKLARQAKESAGKEKKGKGGRGVYSQNSKVWEGVVKLLVAIVA	46300
GLGKEGESYIVAMGAVSGGIIIYRRIEGGAGLVEVVRNSTAVARTTAVMIALE	42400
MDFTLTWVKLHVYFFFLPYPCWKINSLVYPFFFLFFLSFPFSFFFSLFSLFLC	69100
GQATLRLLKESGRQSHAPIFIVGAFDGNRRQIGEGMGSSIKMAEFRAAEDALR	26300
TGGSLFGANKPAFGNAASTSGPFGGGASSGFGGNTGAFGSPASTALGATTGEC	51300
MGGAGDKVLICNCSSTDSFLRMFLLILVFFLIILLVCMDWSLRFLMMFVFLLV	19800
MFFIIILFLVIYSGKISSNFLSFLYRLLLFMLISAQLSVLHCYCLYIFHRCYC	30900
VACEEEMRKLDEEDGRAGLGKGGEGEADREFKRHLRRMRASEVRIVRNVGDLL	29000
GRILIMLFLWLILRLQIRIVVREVLSRPCCCPFSTITSCAALEQYQRVYDQTA	36700
MWSFFFFLFFFGFCFLVFWPNLFFLFFFHDSCPFVLLLFLFHLFHLPVFPRSG	40300
VERCHRNIVPNGCAVFQAGGLVVVLVEVSRKSYLASLVPVIVNAILNEHQIVV	65300
MPPHSEIDDIFAAKHSEPAPPPPPQKKKSKKRKRDAAAATVAPAAAPPPAAPA	46500
